Molecular target: the molecule itself
Experiment: crystal structure; co-crystallised: 240 uM deP Aurora A 122-403 + 1.0 mM AT9283 + 250 uM Mb; sitting drop, 18 °C; 0.1 M Bis-Tris pH 5.5, 0.2 M magnesium chloride, 19% (w/v) PEG-3350

B1: dephosphorylated Aurora A (122-403) (domain or fragment, human, UniProt O14965 122-403, looked up)
chain: ESKKRQWALEDFEIGRPLGKGKFGNVYLAREKQSKFILALKVLFKAQLEKAGVEHQLRREVEIQSHLRHPNILRLYGYFHDATRVYLILEYAPLGTVYRELQKLSKFDEQRTATYITELANALSYCHSKRVIHRDIKPENLLLGSAGELKIADFGWSVHAPSSRRTTLCGTLDYLPPEMIEGRMHDEKVDLWSLGVLCYEFLVGKPPFEANTYQETYKRISRVEFTFPDFVTEGARDLISRLLKHNPSQRPMLREVLEHPWITANSSKPSNCQNKESASKQS
notes: Aurora A kinase (Ser/Thr kinase), residues 122-403, dephosphorylated; also called AurA; deP Aurora A^122-403; source: expressed and purified as described before (Zorba et al., 2014); dephosphorylated state confirmed by mass spectrometry
  binding result: binds
